Results taken from the supplement of paper PMC10567573.
± gives the standard deviation.

Test: protein stability index of a GFP-peptide fusion (GPS, HEK-293T) (PSI 1-6); higher = more stable
[1] = treatment: DMSO, c terminus: a fixed tail appended
[2] = treatment: MLN4924 1 uM, 8 h, c terminus: a fixed tail appended
[3] = treatment: DMSO, c terminus: native
[4] = treatment: MLN4924 1 uM, 8 h, c terminus: native
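Note: 24-mer peptide tiles fused after GFP, lentivirally expressed, FACS-sorted into six equal bins by GFP/DsRed ratio, decoded by Illumina sequencing, PSI is the read-weighted mean bin number.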

| Sequence | protein stability index [1] | protein stability index [2] | protein stability index [3] | protein stability index [4] |
| --- | --- | --- | --- | --- |
| QHGLVLRDLKLCRFVFADRERKKL [TRIB3] | 2.38 ± 0.12 | 2.55 ± 0.18 | – | – |
| QHIDNITQIEDATEKLKANAESSK [TRIM14] | 5.46 ± 0.065 | 5.33 ± 0.39 | – | – |
| QIMQGLEHPFLVNLWYSFQDEEDM [STK32A] | 2.19 ± 0.37 | 2.37 ± 0.36 | – | – |
| QKTSGQHMIQGAGSLEKALPIIQS [DLC1] | 3.86 ± 0.26 | 4.18 ± 0.097 | – | – |
| QKYKLFQQQQLTFTAALEHCRENA [SPACA9] | 2.86 ± 0.24 | 3.12 ± 0.29 | – | – |
| QLDMFYRNWALKESFIKAIGVGLG [AASDHPPT] | 2.78 ± 0.1 | 2.92 ± 0.58 | – | – |
| QLKRQKRDYIHSLKLLNVLEEYIT [FAM9B] | 2.28 ± 0.55 | 2.56 ± 0.42 | – | – |
| QLQKILSIPQSSLEPLKAIIQYRL [ACSBG2] | 2.78 ± 0.86 | 2.36 ± 0.25 | – | – |
| QLQRSWVKMDQKSKHLKEMYQELM [TRIM43] | 2.36 ± 0.4 | 2.55 ± 0.75 | – | – |
| QLSSFGSVDWLSQSSCSGPTHTPR [VENTX] | 3.48 ± 0.3 | 3.69 ± 0.29 | – | – |
| QMPQGNPLLLSHTLQELLARDTVQ [SNX8] | 3.23 ± 0.086 | 3.15 ± 0.27 | – | – |
| QMQEDNSSFSLLLDLLSELYQKQP [INTS3] | 2.38 ± 0.16 | 2.37 ± 0.31 | – | – |
| QNQNITLDCEGTTNKMKSPETKQR [KMT2E] | 5.37 ± 0.12 | 5.3 ± 0.12 | – | – |
| QPWHAVMDIESLSVFTEPNRHFYR [FBXO33] | 2.26 ± 0.18 | 2.11 ± 0.13 | – | – |
| QQAVEQIAKAEETHSSLSQELQAR [CCDC89] | 5.2 ± 0.25 | 5.23 ± 0.28 | – | – |
| QQHAEGSPEPGTPAAPTPESFTVH [DNAAF3] | 5.17 ± 0.24 | 5.27 ± 0.43 | – | – |
| QQSPAAVSMETYHVTLTLPPTQLE [C2CD2L] | 3.37 ± 0.35 | 3.48 ± 0.35 | – | – |
| QRLEEETRKREDAEHNLVLFRKDV [PRPH] | 5.12 ± 0.18 | 5.13 ± 0.17 | – | – |
| QRLKAVIVIQTYYRQWHAKIFVEN [IQUB] | 2.83 ± 0.5 | 2.79 ± 0.79 | – | – |
| QRRASTVSSVTQVEVDENAYRCGS [NET1] | 5.01 ± 0.45 | 5.02 ± 0.2 | – | – |
| QRVEQLTRDLAGLRQFFKQLPSPP [CEBPD] | 2.71 ± 0.34 | 2.82 ± 0.29 | – | – |
| QSETQGLEGAQAPLAVEEDASSST [MAGEA10] | 5.64 ± 0.26 | 5.52 ± 0.33 | – | – |
| QSNVLCSIFGICMVFSGLCPLLLG [PTGFR] | 2.75 ± 0.23 | 2.63 ± 0.34 | – | – |

| Sequence | protein stability index [1] | protein stability index [2] | protein stability index [3] | protein stability index [4] |
| --- | --- | --- | --- | --- |
| QSPDEKPLVALDTDSDDDFDMSRY [FAM219A] | 5.44 ± 0.26 | 5.46 ± 0.23 | – | – |
| QVDGGANFSVDRWERKEGGGGISC [CPOX] | 4.4 ± 0.12 | 4.48 ± 0.21 | – | – |
| QVLLKGMTSISLPSVMDPGAFETV [ZBTB22] | 2.61 ± 0.36 | 2.84 ± 0.37 | – | – |
| QVLNAIEAYTEHRPEITSRAINLL [ZER1] | 2.56 ± 0.27 | 2.66 ± 0.32 | – | – |
| QVLSAKERHLVEIKQKLGMNLMNE [TPD52L1] | 3.04 ± 0.12 | 3.04 ± 0.13 | – | – |
| QVVGQVNVEMDATPGIDLTRVLAE [KRT13] | 4.07 ± 0.32 | 4.15 ± 0.2 | – | – |
| QWWNAVFIMLLIGIVLPVFYLVYF [LYSMD4] | 2.2 ± 0.16 | 2.14 ± 0.17 | – | – |
| QYEEIALKSKAEAEALYQTKFQEL [KRT71] | 4.08 ± 0.35 | 4.18 ± 0.15 | – | – |
| QYNRPISDFLTLHSIIISLVEAGA [FEM1B] | 2.34 ± 0.53 | 2.36 ± 0.34 | – | – |
| RAFNTDHQTQLLYQASAMMVESRY [RAD51] | 2.42 ± 0.35 | 2.68 ± 0.22 | – | – |
| RAGHHPNQYATCRLCGRQVSRGPG [ZBED2] | 2.35 ± 0.38 | 2.67 ± 0.59 | – | – |
| RAISTSVCVRAHESVVKSEDFSLP [COX4I1] | 3.9 ± 0.17 | 3.79 ± 0.34 | – | – |
| RDGALLGCSLTADGLPLHFFIQTV [MYORG] | 2.35 ± 0.31 | 2.36 ± 0.52 | – | – |
| RDGGLCVNDLAVGLRRLGLHRTEG [SLC25A25] | 3.12 ± 0.16 | 2.99 ± 0.14 | – | – |
| RDGYGMTPLLAASVTGHTNIVEYL [FEM1A] | 2.92 ± 0.22 | 2.93 ± 0.24 | – | – |
| RDIQDENQLLVADVKRLGKQNARF [STX11] | 4.21 ± 0.32 | 4.44 ± 0.18 | – | – |
| RDVAAEAVARSPKRPAWGSRRFEA [POMT2] | 3.73 ± 0.23 | 3.94 ± 0.085 | – | – |
| REAMLEMLLQHQICKEVQAEQEPT [SPAG8] | 4.1 ± 0.25 | 4.15 ± 0.39 | – | – |
| RESWDSAKKLPPVQESQSERLQAA [ELOA2] | 5.12 ± 0.17 | 5.02 ± 0.086 | – | – |
| RFPLMTPQELINYVQTVDFMRTDN [KLHL13] | 2.71 ± 0.26 | 2.83 ± 0.34 | – | – |
| RFYYSEDDHGDECSYTDLLPQDEG [KCNA4] | 5.07 ± 0.19 | 4.88 ± 0.27 | – | – |
| RGFFFSHVGWLLVRKHPAVKEKGS [SCD] | 2.31 ± 0.6 | 2.5 ± 0.17 | – | – |
| RGPPHGWPKLCPCLRSGIGSSQAL [MYCL] | 2.21 ± 0.65 | 2.26 ± 0.5 | – | – |

| Sequence | protein stability index [1] | protein stability index [2] | protein stability index [3] | protein stability index [4] |
| --- | --- | --- | --- | --- |
| RGQVGLVPKNYVVVLSDGPALHPA [NCK2] | 2.56 ± 0.29 | 2.43 ± 0.23 | – | – |
| RGRFGELLLLLPTLQSITWQMIEQ [HNF4A] | 2.94 ± 0.28 | 3.33 ± 0.3 | – | – |
| RGSETTYESSADIAGDEGTQIPAD [TAF7L] | 5.58 ± 0.12 | 5.62 ± 0.12 | – | – |
| RHLRSAHRRELESSGAGSSPPAAP [ZBED3] | 5.09 ± 0.36 | 5.1 ± 0.28 | – | – |
| RHLTSRHQEAEMAQNAVRLHYGLP [CTNNB1] | 3.71 ± 0.14 | 3.73 ± 0.25 | – | – |
| RIHSGEKPYGCVECGKAFSRSSIL [ZNF24] | 2.24 ± 0.31 | 2.83 ± 0.23 | – | – |
| RIHSGKKPYACDECAKAFSRSAIL [ZNF396] | 2.31 ± 0.4 | 2.38 ± 0.33 | – | – |
| RKHALERFEQEAVAVDSNLRVREL [CCDC89] | 4.21 ± 0.12 | 4.47 ± 0.21 | – | – |
| RLFLVEDLVDSLKLAVFMWLMTYV [RTN3] | 2.72 ± 0.65 | 2.64 ± 0.78 | – | – |
| RLIKELAKYEYMEEQVILTEKDLL [SAT1] | 2.34 ± 0.34 | 2.18 ± 0.25 | – | – |
| RLRKHQHVGDFARDLAARWKKLVL [ELOA2] | 2.23 ± 0.61 | 2.54 ± 0.9 | – | – |
| RLVAPTEGSLEWDILEVKRLLDHQ [WDR41] | 2.67 ± 0.46 | 2.77 ± 0.29 | – | – |
| RLVVQRCSGQKWMIRNWIKHARH [GALNT9] | – | – | 3.21 ± 0.92 | 2.69 ± 0.65 |
| RMEKGEPYMSIQPAEDPDDYDDGF [SMARCE1] | 5.61 ± 0.076 | 5.54 ± 0.27 | – | – |
| RNTHKDLLRFAQVFSQMIHLNETV [FEM1B] | 2.74 ± 0.7 | 2.34 ± 0.48 | – | – |
| RPCVPPSCHGYTLPGACNIPANVS [KRT33B] | 2.79 ± 0.24 | 2.74 ± 0.17 | – | – |
| RPEGYNLKDEEGKLKDLSTVTSLQ [PPP2R2C] | 5.12 ± 0.23 | 5.29 ± 0.17 | – | – |
| RPGETGMDVTSRCTLGDPNKLPEG [KLHL20] | 5.16 ± 0.31 | 5.11 ± 0.14 | – | – |
| RPPGHHAQHSLMDGYCMFNHVAVA [HDAC6] | 2.4 ± 0.43 | 2.27 ± 0.23 | – | – |
| RQSSVTESTLYPNPYHQPYISRKY [TPRG1] | 3.44 ± 0.31 | 3.67 ± 0.23 | – | – |
| RRALAPPSAGFRCCAAPGPHVALA [ANKRD9] | 1.98 ± 0.47 | 2.25 ± 0.31 | – | – |
| RREKAVHRLRVQQAALRAARLRHQ [NOP53] | 3.6 ± 0.41 | 3.71 ± 0.34 | – | – |
| RRLKTTRLKEYTIKSHSSLPPNNS [DAPK3] | 3.44 ± 0.3 | 3.61 ± 0.28 | – | – |

| Sequence | protein stability index [1] | protein stability index [2] | protein stability index [3] | protein stability index [4] |
| --- | --- | --- | --- | --- |
| RRLQEVLGVQTGGPGGRRAGEPGH [DYRK1B] | 4.12 ± 0.3 | 4.18 ± 0.26 | – | – |
| RRVLQGLEIELQSQLSMKASLENS [KRT16] | 2.8 ± 0.21 | 2.89 ± 0.4 | – | – |
| RSFWELIGEAAKSVKLERPVRGH [S100A14] | – | – | 2.82 ± 0.81 | 2.65 ± 0.62 |
| RSGRLILWEAPPLGAGGGSLLPGA [NEK8] | 2.84 ± 0.43 | 3.11 ± 0.3 | – | – |
| RSNADYQYQLLRCNVDLLKIIQLG [CNOT7] | 2.61 ± 0.46 | 2.51 ± 0.34 | – | – |
| RSSHSSDSGGSDVDLDPTDGKLFP [ELF3] | 5.34 ± 0.17 | 5.26 ± 0.32 | – | – |
| RSSLLACILLSALGYLLLGAATNV [MFSD9] | 2.9 ± 0.34 | 3.44 ± 0.26 | – | – |
| RSVRRERLKEMKLLRDQFVKALED [FAM9B] | 3.22 ± 0.27 | 3.05 ± 0.57 | – | – |
| RTTRGLDPLFGMCEKFLQEVDFFQ [INTS4] | 2.05 ± 0.37 | 2.23 ± 0.26 | – | – |
| RVIACQKTAHDSNVLHVARLPNRQ [WDR41] | 3.52 ± 0.18 | 3.65 ± 0.27 | – | – |
| RYFSLSLMSGALAVNQKIDRESLC [PCDHGC5] | 2.03 ± 0.21 | 2.1 ± 0.28 | – | – |
| RYGRRTAIILSSCLLGLGSLVLIL [SLC2A12] | 5.23 ± 0.14 | 5.1 ± 0.14 | – | – |
| SAAAATAELLKKQEELNRKAEELD [SCAMP3] | 5.72 ± 0.16 | 5.52 ± 0.48 | – | – |
| SAALFYLTNSEYRSEQSVKLRRQV [ZER1] | 2.85 ± 0.57 | 2.83 ± 0.069 | – | – |
| SAGNAPLNEEINIASSDSEVEIVG [C18orf25] | 5.27 ± 0.31 | 5.46 ± 0.19 | – | – |
| SAGVPPSAPLQGAVPPTSSVPPVA [SNAP91] | 4.79 ± 0.13 | 4.82 ± 0.15 | – | – |
| SAMLLVTLGKVLKVIVVMRSLFID [MED27] | 2.9 ± 0.45 | 2.85 ± 0.73 | – | – |
| SARIVQVVTAEAVAVLKGEQEKEA [MAP2] | 4.82 ± 0.11 | 4.81 ± 0.21 | – | – |
| SAVEKEPARAPPEPPHNLFCAPGS [SERTAD3] | 4.95 ± 0.24 | 4.98 ± 0.078 | – | – |
| SCLSSQSSALSQSGGGSTSAAGIE [SPACA3] | 4.78 ± 0.13 | 4.82 ± 0.063 | – | – |
